Target: T1, TNFR1 (Homo sapiens, UniProt P19438)
T1 chain: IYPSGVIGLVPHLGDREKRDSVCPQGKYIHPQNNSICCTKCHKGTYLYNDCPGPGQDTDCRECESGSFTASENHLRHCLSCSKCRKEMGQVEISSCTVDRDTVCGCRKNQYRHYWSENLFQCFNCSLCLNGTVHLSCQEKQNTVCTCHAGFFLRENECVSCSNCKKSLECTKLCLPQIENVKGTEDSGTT
Test: yeast display SC50

Binder | apparent Kd (screen)
Y50I (designed binder) SMEEEVEKAAKEYEKKKKEAIEKHLEKLKAKDKEAAERFLKELEEAAKEIAKDEAKTMSEEEAKRRAKKYKEKVLLSELSEEEQKEIKEAEEKLVRTILKYVEEAAK | 0.0802 nM
E61Q (designed binder) SMEEEVEKAAKEYEKKKKEAIEKHLEKLKAKDKEAAERFLKELEEAAKEYAKDEAKTMSEQEAKRRAKKYKEKVLLSELSEEEQKEIKEAEEKLVRTILKYVEEAAK | 1.4 nM
K69Y (designed binder) SMEEEVEKAAKEYEKKKKEAIEKHLEKLKAKDKEAAERFLKELEEAAKEYAKDEAKTMSEEEAKRRAKYYKEKVLLSELSEEEQKEIKEAEEKLVRTILKYVEEAAK | 2.48 nM
Y70D (designed binder) SMEEEVEKAAKEYEKKKKEAIEKHLEKLKAKDKEAAERFLKELEEAAKEYAKDEAKTMSEEEAKRRAKKDKEKVLLSELSEEEQKEIKEAEEKLVRTILKYVEEAAK | 5.84 nM
E83Q (designed binder) SMEEEVEKAAKEYEKKKKEAIEKHLEKLKAKDKEAAERFLKELEEAAKEYAKDEAKTMSEEEAKRRAKKYKEKVLLSELSEEQQKEIKEAEEKLVRTILKYVEEAAK | 0.593 nM
E37V (designed binder) SMEEEVEKAAKEYEKKKKEAIEKHLEKLKAKDKEAAVRFLKELEEAAKEYAKDEAKTMSEEEAKRRAKKYKEKVLLSELSEEEQKEIKEAEEKLVRTILKYVEEAAK | 0.539 nM
R66C (designed binder) SMEEEVEKAAKEYEKKKKEAIEKHLEKLKAKDKEAAERFLKELEEAAKEYAKDEAKTMSEEEAKRCAKKYKEKVLLSELSEEEQKEIKEAEEKLVRTILKYVEEAAK | 5.84 nM
E34F (designed binder) SMEEEVEKAAKEYEKKKKEAIEKHLEKLKAKDKFAAERFLKELEEAAKEYAKDEAKTMSEEEAKRRAKKYKEKVLLSELSEEEQKEIKEAEEKLVRTILKYVEEAAK | 0.446 nM
R66M (designed binder) SMEEEVEKAAKEYEKKKKEAIEKHLEKLKAKDKEAAERFLKELEEAAKEYAKDEAKTMSEEEAKRMAKKYKEKVLLSELSEEEQKEIKEAEEKLVRTILKYVEEAAK | 26.9 nM
E81R (designed binder) SMEEEVEKAAKEYEKKKKEAIEKHLEKLKAKDKEAAERFLKELEEAAKEYAKDEAKTMSEEEAKRRAKKYKEKVLLSELSREEQKEIKEAEEKLVRTILKYVEEAAK | 0.49 nM
R38Q (designed binder) SMEEEVEKAAKEYEKKKKEAIEKHLEKLKAKDKEAAEQFLKELEEAAKEYAKDEAKTMSEEEAKRRAKKYKEKVLLSELSEEEQKEIKEAEEKLVRTILKYVEEAAK | 1.86 nM
E3H (designed binder) SMHEEVEKAAKEYEKKKKEAIEKHLEKLKAKDKEAAERFLKELEEAAKEYAKDEAKTMSEEEAKRRAKKYKEKVLLSELSEEEQKEIKEAEEKLVRTILKYVEEAAK | 1.86 nM
K23N (designed binder) SMEEEVEKAAKEYEKKKKEAIENHLEKLKAKDKEAAERFLKELEEAAKEYAKDEAKTMSEEEAKRRAKKYKEKVLLSELSEEEQKEIKEAEEKLVRTILKYVEEAAK | 0.49 nM
K8S (designed binder) SMEEEVESAAKEYEKKKKEAIEKHLEKLKAKDKEAAERFLKELEEAAKEYAKDEAKTMSEEEAKRRAKKYKEKVLLSELSEEEQKEIKEAEEKLVRTILKYVEEAAK | 1.4 nM
E78D (designed binder) SMEEEVEKAAKEYEKKKKEAIEKHLEKLKAKDKEAAERFLKELEEAAKEYAKDEAKTMSEEEAKRRAKKYKEKVLLSDLSEEEQKEIKEAEEKLVRTILKYVEEAAK | 1.86 nM
E60D (designed binder) SMEEEVEKAAKEYEKKKKEAIEKHLEKLKAKDKEAAERFLKELEEAAKEYAKDEAKTMSDEEAKRRAKKYKEKVLLSELSEEEQKEIKEAEEKLVRTILKYVEEAAK | 1.27 nM
E14R (designed binder) SMEEEVEKAAKEYRKKKKEAIEKHLEKLKAKDKEAAERFLKELEEAAKEYAKDEAKTMSEEEAKRRAKKYKEKVLLSELSEEEQKEIKEAEEKLVRTILKYVEEAAK | 5.31 nM
S1R (designed binder) RMEEEVEKAAKEYEKKKKEAIEKHLEKLKAKDKEAAERFLKELEEAAKEYAKDEAKTMSEEEAKRRAKKYKEKVLLSELSEEEQKEIKEAEEKLVRTILKYVEEAAK | 0.869 nM
R96A (designed binder) SMEEEVEKAAKEYEKKKKEAIEKHLEKLKAKDKEAAERFLKELEEAAKEYAKDEAKTMSEEEAKRRAKKYKEKVLLSELSEEEQKEIKEAEEKLVATILKYVEEAAK | 3 nM
S80Q (designed binder) SMEEEVEKAAKEYEKKKKEAIEKHLEKLKAKDKEAAERFLKELEEAAKEYAKDEAKTMSEEEAKRRAKKYKEKVLLSELQEEEQKEIKEAEEKLVRTILKYVEEAAK | 1.27 nM
Y50K (designed binder) SMEEEVEKAAKEYEKKKKEAIEKHLEKLKAKDKEAAERFLKELEEAAKEKAKDEAKTMSEEEAKRRAKKYKEKVLLSELSEEEQKEIKEAEEKLVRTILKYVEEAAK | 3.99 nM
S59M (designed binder) SMEEEVEKAAKEYEKKKKEAIEKHLEKLKAKDKEAAERFLKELEEAAKEYAKDEAKTMMEEEAKRRAKKYKEKVLLSELSEEEQKEIKEAEEKLVRTILKYVEEAAK | 1.69 nM
E91A (designed binder) SMEEEVEKAAKEYEKKKKEAIEKHLEKLKAKDKEAAERFLKELEEAAKEYAKDEAKTMSEEEAKRRAKKYKEKVLLSELSEEEQKEIKEAAEKLVRTILKYVEEAAK | 7.07 nM
V102Q (designed binder) SMEEEVEKAAKEYEKKKKEAIEKHLEKLKAKDKEAAERFLKELEEAAKEYAKDEAKTMSEEEAKRRAKKYKEKVLLSELSEEEQKEIKEAEEKLVRTILKYQEEAAK | 0.208 nM
A35R (designed binder) SMEEEVEKAAKEYEKKKKEAIEKHLEKLKAKDKERAERFLKELEEAAKEYAKDEAKTMSEEEAKRRAKKYKEKVLLSELSEEEQKEIKEAEEKLVRTILKYVEEAAK | 0.539 nM
E12W (designed binder) SMEEEVEKAAKWYEKKKKEAIEKHLEKLKAKDKEAAERFLKELEEAAKEYAKDEAKTMSEEEAKRRAKKYKEKVLLSELSEEEQKEIKEAEEKLVRTILKYVEEAAK | 1.54 nM
